Results as given in article PMC10858482, “Computational design and engineering of self-assembling multivalent microproteins with therapeutic potential against SARS-CoV-2” (Journal of Nanobiotechnology, 2024).

Target: T1, RBD of the S protein of SARS-CoV-2 (Omicron BA.1) (SARS-CoV-2 Omicron BA.1, strain)
T1 construct: also called RBD (Omicron BA.1)
Assay: BLI; Octet RED96e; RBD (Omicron BA.1) immobilised on streptavidin (SA) biosensors; analyte 500-31.25 nM Nb67 or 100-3.125 nM Tr67 in 1x PBS, 0.02% Tween-20, 0.1% BSA; association 1 min, dissociation 3 min; 1:1 binding model
Conditions: both partners purified

B1: nanobody Nb67 (VHH)
VHH: EVQLVESGGGLVQTGGSLRLSCALSGYTFSIFPTAWFRQAPGKEREFVAGIRWNGSTRDYTEYADFVKGRFTISRDNAKNMVYLQMISLKPEDTALYYCAASDGVIDGTNANAYRYWGQGTQVTVSS
notes: also called monovalent Nb67
With B1 as the binder, how does the Kd read?
Its Kd is 15.2 nM.
